Experimental data as given in patent publication US5919666.

How the values were obtained:
[1] = molecular target: RNA polymerase II (calf thymus) (bovine (calf thymus)); experiment: cofractionation during purification from calf thymus, Western blot
[2] = molecular target: RNA polymerase II holoenzyme (yeast)
[3] = molecular target: mammalian RNA polymerase II holoenzyme (calf thymus)

Substance	percent of the RNA polymerase II associated with SRB7 [1] [%]	in vitro transcription from a template with a GAL4 site, reconstituted with holoenzyme, factor a and TBP [2] [fold]	in vitro transcription from the adenovirus major late promoter with 3 Gal4 binding sites, with coactivators HMG-2 or PC4 [3] [fold]
bovine SRB7 (from UniProt Q2TBU8)	> 20	–	–
GAL4-VP16 (from UniProt P04386)	–	5	5
